Laboratory results taken from PMC9175631 (Journal of Virology, 2022).

Tests used:
[1] = target: T1, ZIKV prM protein of heat-denatured ZIKV-VLP (Western band) (Zika virus, Suriname Z1106033, UniProt A0A0U4DG08, strain); test: Western blot (Wes capillary electrophoresis); 27 or 240 ng ZIKV-VLP denatured at 70°C for 5 min without reducing agent, electrophoresed, probed with 10 μg/mL MAb; settings: both partners purified
T1 construct: subunit of m13; also called precursor membrane protein

[2] = target: ZIKV prM/E (ZIKV SPH2015), E E162A (Zika virus (ZIKV SPH2015)); test: flow cytometry on cells
[3] = target: ZIKV prM/E (ZIKV SPH2015), E G182A (Zika virus (ZIKV SPH2015)); test: flow cytometry on cells
[4] = target: ZIKV prM/E (ZIKV SPH2015), E G100A (Zika virus (ZIKV SPH2015)); test: flow cytometry on cells
[5] = target: ZIKV prM/E (ZIKV SPH2015), prM G59A (Zika virus (ZIKV SPH2015)); test: flow cytometry on cells
[6] = target: T2, wild-type ZIKV prM/E (ZIKV SPH2015) (Zika virus, SPH2015, UniProt A0A0U3FSM8, strain); test: flow cytometry on cells; settings: one partner purified
T2 construct: also called WT prM/E; wild-type prM/E; source: HEK-293T, transfected, cells fixed and permeabilised

B1: anti-ZIKV MAb 278-11 (antibody, V domains shown)
VH: QSLEESGGGLVQPEGSLTLACTASEFDSSSNAMCWVRQAPGKGLEWIARIYSGSGTIYYANWARGRFTISKTSSTTVTLQMTSLTDADTATYFCARYNTGGFYYDLWGPGTLVTVSS
VL: ALVMTQTPASVEAAVGGTVTINCQASQRIGTNLAWYQQKPGQPPKVLIYKASTLASGVSSRFIGSGSGTDYTLTISGVECDDAATYYCQQGYSSNDADNTFGGGTEVVVK
notes: recombinant rabbit IgG; source: 293-6E cells, cotransfected, purified (MabSelect SuRe protein A)
binding result [1]: binds
antibody binding reactivity (% WT) [2]: 77.8 % WT
antibody binding reactivity (% WT) [3]: 85.9 % WT
antibody binding reactivity (% WT) [4]: 95.1 % WT
antibody binding reactivity (% WT) [5]: 28.5 % WT
binding result [6]: binds
